Values joined by “and” are separate entries in the source; they are usually repeats but may differ in a detail not shown here. Identical values can stand only once.

Experimental findings from US20260285997 (published 2026) are described below.

First the molecules themselves.
B1: V4 IgG (Anti-FLAG-M2-V4) (antibody, V domains shown)
VH: QVQLVQSGAEVKKPGASVKVSCKASGYSFTTYTIHWVRQAPGQGLEWIGYINPSSGYAAYNQKFQGRVTLTADKSTSTAYMELSSLRSEDTAVYYCAREKFYGYDYWGQGTTVTVSS
VL: DVVMTQSPDSLAVSLGERATINCKSSQSIVHRNGNTYLEWYQQKPGQPPKLLIYKVSNRFSGVPDRFSGSGSGTDFTLTISSLQAEDVAVYYCFQGSHVPYTFGGGTKLEIK
B2: V7 IgG (Anti-FLAG-M2-V7) (antibody, V domains shown)
VH: QVQLVQSGAEVKKPGASVKVSCKASGYSFTTYTMHWVRQAPGQGLEWMGYINPSSGYAAYNQKFQGRVTMTADKSTSTAYMELSSLRSEDTAVYYCAREKFYGYDYWGQGTTVTVSS
VL: DVVMTQSPDSLAVSLGERATINCKSSQSIVHRNGNTYLEWYQLKPGQPPKLLIYKVSNRFSGVPDRFSGSGSGTDFTLTISSLQAEDVAVYYCFQGSHVPYTFGGGTKLEIK
B3: Parental anti-FLAG (chimeric) (antibody, V domains shown)
VH: QVQLQQSAGELARPGASVKMSCKASGYSFTTYTIHWVKQRPGQGLEWIGYINPSSGYAAYNQNFKDETTLTADKSSSTAYMQLSSLTSEDSAVYYCAREKFYGYDYWGQGTTLTVSS
VL: DVLMTQLPLSLPVSLGDQASISCRSSQSIVHRNGNTYLEWYLLKPGQSPKLLIYKVSNRFSGVPDRFSGSGSGTDFTLKISRVEAEDLGVYYCFQGSHVPYTFGGGTKLEIK
B4: BEAT 1a6 FLAG arm (antibody)
chain: QVQLVQSGAEVKKPGASVKVSCKASGYSFTTYTIHWVRQAPGQGLEWIGYINPSSGYAAYNQKFQGRVTLTADKSTSTAYMELSSLRSEDTAVYYCAREKFYGYDYWGQGTTVTVSSGGGGSGGGGSGGGGSGGGGASDVVMTQSPDSLAVSLGERATINCKSSQSIVHRNGNTYLEWYQQKPGQPPKLLIYKVSNRFSGVPDRFSGSGSGTDFTLTISSLQAEDVAVYYCFQGSHVPYTFGGGTKLEIK
B5: BEAT 1a5 FLAG arm (antibody)
chain: QVQLVQSGAEVKKPGASVKVSCKASGYSFTTYTIHWVRQAPGQGLEWIGYINPSSGYAAYNQKFQGRVTLTADKSTSTAYMELSSLRSEDTAVYYCAREKFYGYDYWGQGTTVTVSSGGGGSGGGGSGGGGSGGGGASDVVMTQSPDSLAVSLGERATINCKSSQSIVHRNGNTYLEWYQQKPGQPPKLLIYKVSNRFSGVPDRFSGSGSGTDFTLTISSLQAEDVAVYYCFQGSHVPYTFGGGTKLEIK
B6: BEAT 1a8 FLAG arm (antibody)
chain: QVQLVQSGAEVKKPGASVKVSCKASGYSFTTYTIHWVRQAPGQGLEWIGYINPSSGYAAYNQKFQGRVTLTADKSTSTAYMELSSLRSEDTAVYYCAREKFYGYDYWGQGTTVTVSSGGGGSGGGGSGGGGSGGGGASDVVMTQSPDSLAVSLGERATINCKSSQSIVHRNGNTYLEWYQQKPGQPPKLLIYKVSNRFSGVPDRFSGSGSGTDFTLTISSLQAEDVAVYYCFQGSHVPYTFGGGTKLEIK
B7: BEAT 1a7 FLAG arm (antibody)
chain: QVQLVQSGAEVKKPGASVKVSCKASGYSFTTYTIHWVRQAPGQGLEWIGYINPSSGYAAYNQKFQGRVTLTADKSTSTAYMELSSLRSEDTAVYYCAREKFYGYDYWGQGTTVTVSSGGGGSGGGGSGGGGSGGGGASDVVMTQSPDSLAVSLGERATINCKSSQSIVHRNGNTYLEWYQQKPGQPPKLLIYKVSNRFSGVPDRFSGSGSGTDFTLTISSLQAEDVAVYYCFQGSHVPYTFGGGTKLEIK
B8: BEAT 1a1 FLAG arm (antibody)
chain: DVVMTQSPDSLAVSLGERATINCKSSQSIVHRNGNTYLEWYQQKPGQPPKLLIYKVSNRFSGVPDRFSGSGSGTDFTLTISSLQAEDVAVYYCFQGSHVPYTFGGGTKLEIKGGGGSGGGGSGGGGSQVQLVQSGAEVKKPGASVKVSCKASGYSFTTYTIHWVRQAPGQGLEWIGYINPSSGYAAYNQKFQGRVTLTADKSTSTAYMELSSLRSEDTAVYYCAREKFYGYDYWGQGTTVTVSS
B9: BEAT 1a4 FLAG arm (antibody)
chain: DVVMTQSPDSLAVSLGERATINCKSSQSIVHRNGNTYLEWYQQKPGQPPKLLIYKVSNRFSGVPDRFSGSGSGTDFTLTISSLQAEDVAVYYCFQGSHVPYTFGGGTKLEIKGGGGSGGGGSGGGGSQVQLVQSGAEVKKPGASVKVSCKASGYSFTTYTIHWVRQAPGQGLEWIGYINPSSGYAAYNQKFQGRVTLTADKSTSTAYMELSSLRSEDTAVYYCAREKFYGYDYWGQGTTVTVSS
B10: BEAT 1a3 FLAG arm (antibody)
chain: DVVMTQSPDSLAVSLGERATINCKSSQSIVHRNGNTYLEWYQQKPGQPPKLLIYKVSNRFSGVPDRFSGSGSGTDFTLTISSLQAEDVAVYYCFQGSHVPYTFGGGTKLEIKGGGGSGGGGSGGGGSQVQLVQSGAEVKKPGASVKVSCKASGYSFTTYTIHWVRQAPGQGLEWIGYINPSSGYAAYNQKFQGRVTLTADKSTSTAYMELSSLRSEDTAVYYCAREKFYGYDYWGQGTTVTVSS
B11: BEAT 1a2 FLAG arm (antibody)
chain: DVVMTQSPDSLAVSLGERATINCKSSQSIVHRNGNTYLEWYQQKPGQPPKLLIYKVSNRFSGVPDRFSGSGSGTDFTLTISSLQAEDVAVYYCFQGSHVPYTFGGGTKLEIKGGGGSGGGGSGGGGSQVQLVQSGAEVKKPGASVKVSCKASGYSFTTYTIHWVRQAPGQGLEWIGYINPSSGYAAYNQKFQGRVTLTADKSTSTAYMELSSLRSEDTAVYYCAREKFYGYDYWGQGTTVTVSS
B12: BEAT 1a6 CD40 arm (antibody, V domains shown)
VH: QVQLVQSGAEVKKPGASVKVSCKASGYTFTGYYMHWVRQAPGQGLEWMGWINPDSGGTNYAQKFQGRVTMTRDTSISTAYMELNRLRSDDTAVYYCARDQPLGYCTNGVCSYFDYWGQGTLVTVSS
VL: DIQMTQSPSSVSASVGDRVTITCRASQGIYSWLAWYQQKPGKAPNLLIYTASTLQSGVPSRFSGSGSGTDFTLTISSLQPEDFATYYCQQANIFPLTFGGGTKVEIK
B13: BEAT 1b1 CD40 arm (antibody, V domains shown)
VH: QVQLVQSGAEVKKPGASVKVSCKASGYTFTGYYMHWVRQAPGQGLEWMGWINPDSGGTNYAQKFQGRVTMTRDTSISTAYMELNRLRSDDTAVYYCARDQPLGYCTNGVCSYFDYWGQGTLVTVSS
VL: DIQMTQSPSSVSASVGDRVTITCRASQGIYSWLAWYQQKPGKAPNLLIYTASTLQSGVPSRFSGSGSGTDFTLTISSLQPEDFATYYCQQANIFPLTFGGGTKVEIK
B14: BEAT 2a7 FLAG arm (antibody)
chain: QVQLVQSGAEVKKPGASVKVSCKASGYSFTTYTIHWVRQAPGQGLEWIGYINPSSGYAAYNQKFQGRVTLTADKSTSTAYMELSSLRSEDTAVYYCAREKFYGYDYWGQGTTVTVSSGGGGSGGGGSGGGGSGGGGASDVVMTQSPDSLAVSLGERATINCKSSQSIVHRNGNTYLEWYQQKPGQPPKLLIYKVSNRFSGVPDRFSGSGSGTDFTLTISSLQAEDVAVYYCFQGSHVPYTFGGGTKLEIK
B15: BEAT 2a6 FLAG arm (antibody)
chain: QVQLVQSGAEVKKPGASVKVSCKASGYSFTTYTIHWVRQAPGQGLEWIGYINPSSGYAAYNQKFQGRVTLTADKSTSTAYMELSSLRSEDTAVYYCAREKFYGYDYWGQGTTVTVSSGGGGSGGGGSGGGGSGGGGASDVVMTQSPDSLAVSLGERATINCKSSQSIVHRNGNTYLEWYQQKPGQPPKLLIYKVSNRFSGVPDRFSGSGSGTDFTLTISSLQAEDVAVYYCFQGSHVPYTFGGGTKLEIK
B16: BEAT 2a8 FLAG arm (antibody)
chain: QVQLVQSGAEVKKPGASVKVSCKASGYSFTTYTIHWVRQAPGQGLEWIGYINPSSGYAAYNQKFQGRVTLTADKSTSTAYMELSSLRSEDTAVYYCAREKFYGYDYWGQGTTVTVSSGGGGSGGGGSGGGGSGGGGASDVVMTQSPDSLAVSLGERATINCKSSQSIVHRNGNTYLEWYQQKPGQPPKLLIYKVSNRFSGVPDRFSGSGSGTDFTLTISSLQAEDVAVYYCFQGSHVPYTFGGGTKLEIK
B17: BEAT 2a5 FLAG arm (antibody)
chain: QVQLVQSGAEVKKPGASVKVSCKASGYSFTTYTIHWVRQAPGQGLEWIGYINPSSGYAAYNQKFQGRVTLTADKSTSTAYMELSSLRSEDTAVYYCAREKFYGYDYWGQGTTVTVSSGGGGSGGGGSGGGGSGGGGASDVVMTQSPDSLAVSLGERATINCKSSQSIVHRNGNTYLEWYQQKPGQPPKLLIYKVSNRFSGVPDRFSGSGSGTDFTLTISSLQAEDVAVYYCFQGSHVPYTFGGGTKLEIK
B18: BEAT 2a2 FLAG arm (antibody)
chain: DVVMTQSPDSLAVSLGERATINCKSSQSIVHRNGNTYLEWYQQKPGQPPKLLIYKVSNRFSGVPDRFSGSGSGTDFTLTISSLQAEDVAVYYCFQGSHVPYTFGGGTKLEIKGGGGSGGGGSGGGGSQVQLVQSGAEVKKPGASVKVSCKASGYSFTTYTIHWVRQAPGQGLEWIGYINPSSGYAAYNQKFQGRVTLTADKSTSTAYMELSSLRSEDTAVYYCAREKFYGYDYWGQGTTVTVSS
B19: BEAT 2a4 FLAG arm (antibody)
chain: DVVMTQSPDSLAVSLGERATINCKSSQSIVHRNGNTYLEWYQQKPGQPPKLLIYKVSNRFSGVPDRFSGSGSGTDFTLTISSLQAEDVAVYYCFQGSHVPYTFGGGTKLEIKGGGGSGGGGSGGGGSQVQLVQSGAEVKKPGASVKVSCKASGYSFTTYTIHWVRQAPGQGLEWIGYINPSSGYAAYNQKFQGRVTLTADKSTSTAYMELSSLRSEDTAVYYCAREKFYGYDYWGQGTTVTVSS
B20: BEAT 2a3 FLAG arm (antibody)
chain: DVVMTQSPDSLAVSLGERATINCKSSQSIVHRNGNTYLEWYQQKPGQPPKLLIYKVSNRFSGVPDRFSGSGSGTDFTLTISSLQAEDVAVYYCFQGSHVPYTFGGGTKLEIKGGGGSGGGGSGGGGSQVQLVQSGAEVKKPGASVKVSCKASGYSFTTYTIHWVRQAPGQGLEWIGYINPSSGYAAYNQKFQGRVTLTADKSTSTAYMELSSLRSEDTAVYYCAREKFYGYDYWGQGTTVTVSS

The first assay concerns the target T1, FLAG tag antigen.
T1 chain: DYKDDDDK
Kind of assay: SPR bivalent.
Molecule B1 registered a Kd of 0.91 nM.
Molecule B2 had a Kd of 1.3 nM.
On the same count and under the same terms, as for B3, the figure is 0.96 nM.

The target of a further assay is T2, FLAG-BAP (FLAG tag fused to bacterial alkaline phosphatase). Briefly: SPR. A general note: In SPR one partner is held on a chip, and binding of the other changes the refractive index at the surface.
For the molecule B4, the Kd is 15.5 nM and 27.4 nM.
As for B5, the Kd was 21.9 nM and 15.4 nM.
For the molecule B6, the Kd is 10.1 nM and 8.85 nM.
Take B7: the Kd is 10.9 nM and 13.5 nM and 7.81 nM.
Same read-out and setting: as for B1, the figure is 34.3 nM and 20.7 nM; as for B2, 23.2 nM and 27.7 nM.
For the molecule B8, the Kd is 0.671 nM and 0.798 nM.
Take B9: the Kd was 6.9 nM and 5.04 nM.
Consider B10, for which the Kd was 1.22 nM and 1.24 nM and 1.65 nM.
As to B11, the Kd is 1.26 nM and 1.99 nM.

The target in a further assay is CD40 (human, UniProt P25942). Kind of assay: SPR.
CD40, sequence (P25942 21-193): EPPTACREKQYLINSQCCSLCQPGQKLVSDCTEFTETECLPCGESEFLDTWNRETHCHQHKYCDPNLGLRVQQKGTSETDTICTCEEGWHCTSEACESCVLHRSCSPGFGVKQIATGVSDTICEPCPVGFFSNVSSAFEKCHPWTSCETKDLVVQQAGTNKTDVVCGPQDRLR
Take B12: the Kd was 0.371 nM and 0.394 nM.
Turning to B13, the Kd was 0.379 nM and 0.62 nM.

The next assay addresses T2, FLAG-BAP. Briefly: SPR. This is another data set of the same source.
With B14, the Kd is 6.59 nM and 9.46 nM.
On the same count and under the same terms, next, B15: 35.1 nM and 32.6 nM.
On the same count and under the same terms, next, B16: 10.8 nM and 9.09 nM; B17: 19.5 nM and 18.1 nM.
With B1, the Kd was 34.3 nM and 20.7 nM.
In the case of B2, the Kd is 27.7 nM and 23.2 nM.
With B18, the Kd was 51.9 nM and 21.7 nM.
On to B19, for which the Kd was 13.3 nM and 17 nM.
For the molecule B20, the Kd is 5.13 nM and 2.63 nM and 3.04 nM.
